The RNAGym collection of RNA variant scans (doi:10.1073/pnas.2313332121)

B1: TPR t1 (parent)
chain: GACCAAUCUGCCCUCAGAGCUCGAGAACAUCUUCGGAUGCAGAGGAGGCAGGCUUCGGUGGCGCGAUAGCGCCAACGUCCUCAACCUCCAAUGCAUCCCACCACAUGAUGAUGCCUGAAGAGCCUUGGUUUUUUG

Variants of: B1
Test: polymerase ribozyme fitness, log enrichment relative to wild type (log ratio); higher = more active; in vitro selection for triplet polymerase activity
In short: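 Input and output libraries were sequenced on Illumina after a single in vitro selection round, run in triplicate on PCR-built, transcribed mutant libraries of each subunit of a heterodimeric triplet polymerase ribozyme. Selection annealed libraries to a biotinylated primer, the partner subunit and triplets, incubated them frozen at −7 °C, then gel-excised extended constructs for streptavidin-bead capture and RT-PCR. Genotypes with ≥10 input reads and ≥1 read per output were kept. Fitness is the logarithm, taken in base 2, of genotype enrichment divided by wild-type enrichment, using inverse-variance-weighted replicate averages.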

Variant | polymerase ribozyme fitness (log ratio)
GACCAAUCUGCCCUCAGAGUUCGAGAACAUCUUCGGAUGCAGAUGAGGCGGGCUUCGGUGGCGCGAUAGCGCCGACGUCCUCAACCUCCAAUGCAUCCCACCACAUGAUGAUGCCUGAAGAGCCUUGGUUUUUUG [C20U G44U A50G A74G] | -3.66
GACCAAUCUGCCCUCAGAGUUCGAGAACAUCUUCGGAUGCAGAGGAUGCAGGCUUCGGUGGCGCGAUAGCGCCAACGUCCUGAACCUCCAAUGCAUCCCACCACAUGAUGAUGCCUGAAGAGCCUUGGUUUUUUG [C20U G47U C82G] | -4.12
GACCAAUCUGCCCUCAGAGUUCGAGAACAUCUUCGGAUGCAGAGGAGGCAUGCUUCGGUGGCGCGAUAGCACCAACGUCCUCAACCUCCAAUGCAUCCCACCACAUGAUGAUGCCUGAAGAGCCUUGGUUUUUUG [C20U G51U G71A] | -6.53
GACCAAUCUGCCCUCAGAGUUCGAGAACAUCUUCGGAUGCAGAGGAGGCAGACUUCGGUGGCGCGAUAGCGCCAACGUCCUCAACCUCCAAUGCAUCCCACCACAUGAUGAUGCCUGAAGAGCCUUGGUUUUUUG [C20U G52A] | -0.737
GACCAAUCUGCCCUCAGAGUUCGAGAACAUCUUCGGAUGCAGAGGAGGCAGACUUCGGUGGCGCGAUAGUGCCAACGUCCUCAACCUCCAAUGCAUCCCACCACAUGAUGAUGCCUGAAAAGCCUUGGUUUUUUG [C20U G52A C70U G120A] | -1.85
GACCAAUCUGCCCUCAGAGUUCGAGAACAUCUUCGGAUGCAGAGGAGGCAGACUUCGGUGGCGCGAUAGCGCCAACGUCCUCAACCUCCAAUGCAUCCCACCACAUGAUGAUGCCUGAAGAGCUUUGGUUUUUUG [C20U G52A C124U] | 0.255
GACCAAUCUGCCCUCAGAGUUCGAGAACAUCUUCGGAUGCAGAGGAGGCAGUUUUAGGUGGCGCGAUAGCGCCAACGUCCUCAACCUCCAAUGCAUCCCACCACAUGAUGAUGCCUGAAGAGACUUGGUUUUUUG [C20U G52U C53U C56A C123A] | -3.62
GACCAAUCUGCCCUCAGAGUUCGAGAACAUCUUCGGAUGCAGAGGAGGCAGGCUUCAGUGGCACGAUAGCGCCAACGUCCUCAACCUCCAAUGCAUCCCACCACAUGAUGAUGCAUGAAGAGCCUUGGUUUUUUG [C20U G57A G63A C115A] | -3.54
GACCAAUCUGCCCUCAGAGUUCGAGAACAUCUUCGGAUGCAGAGGAGGCAGGCUUCGGUAGCGCGAUAGCGCCAACGUCCUCAACCUCCAAUGCAUCCCACCACAUGAUGAUGCCUGAAGAGCCUUGGUUUUUUG [C20U G60A] | -1.03
GACCAAUCUGCCCUCAGAGUUCGAGAACAUCUUCGGAUGCAGAGGAGGCAGGCUUCGGUUGCGCGAUAGCGCCAACGUCCUCAACCUCCAAUGCAUCCCACCACAUGAUGAUGCCUGAAGAGCCUUGGUUUUUUG [C20U G60U] | -1.52
GACCAAUCUGCCCUCAGAGUUCGAGAACAUCUUCGGAUGCAGAGGAGGCAGGCUUCGGUGACGCGAUAGCGCCAACGUCCUCAACCUACAAUGCAUCCCACCACAUGAUGAUGCCUGAAGAGCCUUGGUUUUUUG [C20U G61A C88A] | -1.39
GACCAAUCUGCCCUCAGAGUUCGAGAACAUCUUCGGAUGCAGAGGAGGCAGGCUUCGGUGCCGCGAUAGCGCCAACGUCCUCAACCUCCAAUGCAUCCCACCACAUGAUGGUGCCUGAAGAGCCUUGGUUUUUUG [C20U G61C A111G] | -5.2
GACCAAUCUGCCCUCAGAGUUCGAGAACAUCUUCGGAUGCAGAGGAGGCAGGCUUCGGUGUCGCGAUAGCGCCAACGUCCUCAACCUCCAAUGCAUCCCACCACAUGAUGAUGCCUGAAGAGCCUUGGUUUUUUG [C20U G61U] | -1.41
GACCAAUCUGCCCUCAGAGUUCGAGAACAUCUUCGGAUGCAGAGGAGGCAGGCUUCGGUGGCACGAUAGCGCCAACGUCCUCAACCUCCAAUGCAGCCCACCACAUGAUGAUGCCUGAAGAGCCUUGGUUUUUUG [C20U G63A U96G] | -3.22
GACCAAUCUGCCCUCAGAGUUCGAGAACAUCUUCGGAUGCAGAGGAGGCAGGCUUCGGUGGCCCGAUAGCGCCAACGUCCUCAACCUCCAAUGAAUCCCACCACAUGAUGAUGCCUGAACAGCCUUGGUUUUUUG [C20U G63C C94A G120C] | -2.23
GACCAAUCUGCCCUCAGAGUUCGAGAACAUCUUCGGAUGCAGAGGAGGCAGGCUUCGGUGGCUCGAUAGCGCCAACGUCCUCAACCUCCAAUACAUCCCACCACAUGAUGAUGGCUGAAGAGCCUUGGUUUUUUG [C20U G63U G93A C114G] | -2.6
GACCAAUCUGCCCUCAGAGUUCGAGAACAUCUUCGGAUGCAGAGGAGGCAGGCUUCGGUGGCGCGAUAUGGCCAACGUCCUCAACCUCCAAUGAAUCCCACCACAUGAUGAUGCCUGAAGAGCCUUGGUUUUUUG [C20U G69U C70G C94A] | -3.15
GACCAAUCUGCCCUCAGAGUUCGAGAACAUCUUCGGAUGCAGAGGAGGCAGGCUUCGGUGGCGCGAUAGCGCCAACUUCCUCAACCUCCAGUGCAUCCCACCACAUGAUGAUGCCUGAAGAGCCUUGGUUUUUUG [C20U G77U A91G] | -5.11
GACCAAUCUGCCCUCAGAGUUCGAGAACAUCUUCGGAUGCAGAGGAGGCAGGCUUCGGUGGCGCGAUAGCGCCAACGUCCUCAACCUCCAAUGCAUCCCACCACAUGAUGAUGCCUUAAGAGCCUUGGUUUUUUG [C20U G117U] | -3.53
GACCAAUCUGCCCUCAGAGUUCGAGAACAUCUUCGGAUGCAGAGGAGGCAGGCUUCGGUGGCGCGAUAGCGCCAACGUCCUCAACCUCCAAUGCAUCCCACCACAUGAUGAUGCCUGAACAGCCUUGGUUUUUUG [C20U G120C] | -0.868
GACCAAUCUGCCCUCAGAGUUCGAGAACAUCCUCGGAUGCAGAGGAGGCAGGCUUCGGUGGCGCGAUAGCGCCAACGUCCUCAACCUCCAAUGCAUCCCACCACAAGAUGAUGCCUGAAGAGCCUUGGUUUUUUG [C20U U32C U106A] | -2.46
